How the values were obtained:
NKp46 D1 domain-Ig = molecular target: T1, NKp46 D1 domain-Ig (human, UniProt O76036 22-120); assay: ELISA, D1-Ig plated at 0.1 ug/well, biotin anti-mouse / streptavidin-POD / TMB, OD 650nm
T1 construct: domain: D1; also called D1-Ig; Ig-D1; not shown: Ig part not described for this construct
Protocol: To identify the binding site of the anti-NKp46 mAbs, Ig-D1, Ig-D2 and Ig-NKp46 were plated at 0.1 µg/well. The plate was placed at 4° C. overnight. The next day blocking was performed (blocking buffer is PBSx1, 0.05%Tween-20, and 5% BSA) followed by addition of the mAbs at 0.1 µg/well and 10 µl/well of SN antibodies (both diluted in blocking buffer to a final volume of 100µl). The plate was placed at 4° C. overnight. The next day, biotin anti-mouse was added (diluted in blocking buffer), followed by streptavidin-POD (diluted in blocking buffer), and with TMB for detection of samples at OD650nm.

[1] = molecular target: T2, Acro Biosystems Human NKp46 expressed in HEK293 cells (human, UniProt O76036 22-258); assay: ELISA titration on coated Acro Biosystems human NKp46, anti-human kappa-HRP, absorbance at 450 nm; given as affinity
T2 construct: Bought antigen coated on the ELISA plate
T2 sequence (O76036 22-258 limits assumed): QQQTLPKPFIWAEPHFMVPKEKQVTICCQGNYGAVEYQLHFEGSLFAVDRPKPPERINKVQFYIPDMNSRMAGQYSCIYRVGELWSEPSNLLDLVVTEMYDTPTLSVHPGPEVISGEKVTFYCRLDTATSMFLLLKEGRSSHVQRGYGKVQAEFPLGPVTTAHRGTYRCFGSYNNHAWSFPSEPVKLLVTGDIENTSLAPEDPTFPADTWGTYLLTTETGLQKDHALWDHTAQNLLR
Protocol: The binding of the humanized antibodies with mutated IgG4 to cells expressing NKp46 was examined. The experiments were performed as follows: [0300] 1. Coat tested in a matrix of 3 conc. vs. 3 buffers to find optimal signal. [0301] 2. Optimal signal conditions were used to coat the ELISA tray, using standard blocking and washing steps. [0302] 3. Primary antibody applied in range of concentrations with 10-dilutions (MAbs with humanized variable + mutated IgG4). [0303] 4. Secondary Ab used to detect binding was Anti-Hu Kappa with HRP (TMB sub strate). [0304] 5. Absorbance measured at 450 nm.
The antigen was Acro Biosystems Human NKp46 that was expressed in HEK293 cells.

T1 sequence (O76036 22-120): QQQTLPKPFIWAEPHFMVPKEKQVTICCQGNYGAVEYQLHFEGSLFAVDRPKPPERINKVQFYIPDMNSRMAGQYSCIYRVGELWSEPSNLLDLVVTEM

binding result (NKp46 D1 domain-Ig) | Kd [1] | Binder
no binding |  | anti-NKp46 monoclonal antibody clone K3 (antibody, V domains shown) VH: EVQLQQSGPELVKPGTSVKISCKTSGYTFTEYSMHWVKQSHGKSLEWFGGISPNSGGTSYNQKFKGKATLTVDKSSSTAYMELRSLTSEDSAVYYCARRDFHSSFDYWGQGTTLTVSS VL: DIVLTQSPATLSVTPGNSVSLSCRASQSISDYLHWFQQKSHESPRLLIKYASQSISGIPSRFSGSGSGSDFTLSINSVEPEDVGVYYCQNGHSFPLTFGPGTKLELK
 | 0.0205 nM | humanized P4 antibody having mutated IgG4 (antibody, V domains shown, detected with an anti-human kappa secondary antibody) VH: EVQLQQSGAEVKKPGSSVKVSCKTSGYTFTEYSMHWVRQAPGKSLEWFGGISPNSGGTSYNQKFKGRATLTVDKSSSTAYMELSSLRSEDTAVYYCARRDFHSSFDYWGQGTTVTVSS VL: DIVMTQSPATLSLSPGERATLSCRASQSISDYLHWFQQKPHESPRLLIKYASQSISGIPARFSGSGSGSDFTLTISSLEPEDFAVYYCQNGHSFPLTFGPGTKVDIK
 | 0.027 nM | humanized K3 antibody having mutated IgG4 (antibody, V domains shown, detected with an anti-human kappa secondary antibody) VH: EVQLQQSGAEVKKPGSSVKVSCKTSGYTFTEYSMHWVRQAPGKSLEWFGGISPNSGGTSYNQKFKGRATLTVDKSSSTAYMELSSLRSEDTAVYYCARRDFHSSFDYWGQGTTVTVSS VL: DIVLTQSPATLSLSPGERATLSCRASQSISDYLHWFQQKPHESPRLLIKYASQSISGIPARFSGSGSGSDFTLTISSLEPEDFAVYYCQNGHSFPLTFGPGTKVDIKR

From US20230183342A1 (YISSUM RESEARCH DEVELOPMENT COMPANY OF THE HEBREW …, published 2023)
